Drawing on PMC6529012, this text covers reduction by FnbA-2 peptide (10 ug/well, preincubated with the monolayer) of adherence of radiolabelled B314 expressing Tp0136 to C6 (rat) glioma cells, reduction by FnbA-2 peptide (10 ug/well, preincubated with the monolayer) of adherence of radiolabelled B314 expressing Tp0136 to HEK293 cells and average percent binding of radiolabelled B314 expressing Tp0136 to Vero cells for two molecules.

For test [1], the target named is human foreskin fibroblast fibronectin (human).
Chain of human foreskin fibroblast fibronectin (human) (P02751 32-2477): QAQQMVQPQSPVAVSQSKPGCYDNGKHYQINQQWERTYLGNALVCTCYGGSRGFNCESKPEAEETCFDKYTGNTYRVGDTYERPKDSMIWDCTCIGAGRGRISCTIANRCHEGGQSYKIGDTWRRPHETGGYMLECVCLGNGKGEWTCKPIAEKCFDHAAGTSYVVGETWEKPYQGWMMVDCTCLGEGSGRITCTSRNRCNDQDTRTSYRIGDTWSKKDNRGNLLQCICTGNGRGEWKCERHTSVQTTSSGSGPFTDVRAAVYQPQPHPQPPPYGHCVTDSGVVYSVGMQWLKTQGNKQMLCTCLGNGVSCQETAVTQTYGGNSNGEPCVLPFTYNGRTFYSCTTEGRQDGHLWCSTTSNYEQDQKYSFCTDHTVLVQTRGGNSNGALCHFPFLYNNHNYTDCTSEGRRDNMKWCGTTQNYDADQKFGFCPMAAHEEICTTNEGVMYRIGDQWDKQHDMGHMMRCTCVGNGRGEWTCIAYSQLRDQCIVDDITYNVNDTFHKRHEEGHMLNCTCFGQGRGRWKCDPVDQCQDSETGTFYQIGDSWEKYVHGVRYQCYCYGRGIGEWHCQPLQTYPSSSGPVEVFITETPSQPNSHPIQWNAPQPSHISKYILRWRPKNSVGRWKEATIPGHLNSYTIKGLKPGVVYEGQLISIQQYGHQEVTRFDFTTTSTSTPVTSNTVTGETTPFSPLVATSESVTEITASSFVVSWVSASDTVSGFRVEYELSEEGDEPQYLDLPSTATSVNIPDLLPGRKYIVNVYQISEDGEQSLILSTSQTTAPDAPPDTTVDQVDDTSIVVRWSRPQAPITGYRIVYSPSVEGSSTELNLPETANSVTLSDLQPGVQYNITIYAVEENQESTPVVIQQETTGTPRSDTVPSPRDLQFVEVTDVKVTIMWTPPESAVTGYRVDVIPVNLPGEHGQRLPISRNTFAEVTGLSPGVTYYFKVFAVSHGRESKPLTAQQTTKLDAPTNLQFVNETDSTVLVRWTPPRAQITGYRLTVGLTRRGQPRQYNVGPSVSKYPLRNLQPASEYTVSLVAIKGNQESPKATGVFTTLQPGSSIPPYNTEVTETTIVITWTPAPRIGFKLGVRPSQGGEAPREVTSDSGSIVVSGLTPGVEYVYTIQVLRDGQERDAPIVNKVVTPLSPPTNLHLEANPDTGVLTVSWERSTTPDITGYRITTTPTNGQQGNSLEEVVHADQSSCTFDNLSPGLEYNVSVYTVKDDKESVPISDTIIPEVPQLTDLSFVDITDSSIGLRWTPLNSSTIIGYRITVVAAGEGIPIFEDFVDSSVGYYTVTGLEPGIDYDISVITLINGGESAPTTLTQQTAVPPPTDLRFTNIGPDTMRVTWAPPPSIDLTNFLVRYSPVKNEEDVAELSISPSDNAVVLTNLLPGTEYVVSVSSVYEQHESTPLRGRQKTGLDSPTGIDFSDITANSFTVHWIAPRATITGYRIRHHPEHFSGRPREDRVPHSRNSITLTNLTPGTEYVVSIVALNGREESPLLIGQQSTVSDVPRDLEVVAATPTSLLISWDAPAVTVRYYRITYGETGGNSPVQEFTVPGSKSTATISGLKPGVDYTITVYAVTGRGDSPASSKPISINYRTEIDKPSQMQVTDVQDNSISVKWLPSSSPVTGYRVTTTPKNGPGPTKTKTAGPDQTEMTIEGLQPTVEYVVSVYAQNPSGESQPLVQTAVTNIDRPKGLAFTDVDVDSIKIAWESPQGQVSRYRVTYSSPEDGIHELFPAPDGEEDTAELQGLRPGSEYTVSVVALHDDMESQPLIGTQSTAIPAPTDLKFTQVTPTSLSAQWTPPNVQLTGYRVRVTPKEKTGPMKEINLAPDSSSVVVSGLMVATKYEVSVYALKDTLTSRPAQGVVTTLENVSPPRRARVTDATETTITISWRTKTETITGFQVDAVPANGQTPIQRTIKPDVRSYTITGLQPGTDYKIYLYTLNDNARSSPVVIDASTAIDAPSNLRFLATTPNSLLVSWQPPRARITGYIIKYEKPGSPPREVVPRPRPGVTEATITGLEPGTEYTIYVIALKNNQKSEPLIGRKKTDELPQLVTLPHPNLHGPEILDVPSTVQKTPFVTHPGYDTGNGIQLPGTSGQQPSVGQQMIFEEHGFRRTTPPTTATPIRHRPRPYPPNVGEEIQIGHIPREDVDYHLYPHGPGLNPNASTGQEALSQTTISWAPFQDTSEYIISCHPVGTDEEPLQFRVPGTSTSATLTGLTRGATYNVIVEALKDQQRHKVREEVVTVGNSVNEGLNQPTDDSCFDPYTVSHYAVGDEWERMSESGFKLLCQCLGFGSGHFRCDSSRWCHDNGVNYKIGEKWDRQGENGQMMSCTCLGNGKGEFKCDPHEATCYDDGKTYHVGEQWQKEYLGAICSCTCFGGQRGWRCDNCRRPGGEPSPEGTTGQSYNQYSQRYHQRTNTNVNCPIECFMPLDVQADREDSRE
For test [2] the target is unchanged. This is another data set of the same source.

B1: Tp0136 of Treponema pallidum subsp. pallidum SS14 strain, expressed on the surface of B. burgdorferi B314 (natural protein)
chain: CDFTGIFAAIQSEVPIKTPSIPGAIYGLVKAGSKLYATNGRLWEKELNGTGSWQKVSSSSVPTDSDKKVMSIATDGNTFVLACVPGTGVYKHCVNGAGSSSTGTTASPSTETCSQHATLVGGTSKPFWLVPGGTGNNGNCGCGGGGGGSSSSSSSCIHIWLVPGGTGNNGNCGCGGGGGGSSSSSSSCIHIKVENTDEQFLDMGEGYVVTTKHLYTKNGSSSAGPAQCPGGGGGGGSSGGGGSSEYTKASCSFSTPILASVSDGCYHYILTKEKVYCRKQDTASSAASSPAQCPSSPSSSSSSSTNAGCEVAHGVDDPLCLAIFKHNGCEYLLIGGSRGYGEIKLEANSSGTNGTCMRLKESNVHKSPGQWGESSPTPKASAEQYRGTVGRFAVQKIYVVEKNGGGNGVAAGGAGCPANASSSSGGTSSTQRPDLYAAVGESSDTYTGLWKFDTTTCSWNRE
In test [1], B1 had a reduction by FnbA-2 peptide (10 ug/well, preincubated with the monolayer) of adherence of radiolabelled B314 expressing Tp0136 to C6 (rat) glioma cells of 25.3% and a reduction by FnbA-2 peptide (10 ug/well, preincubated with the monolayer) of adherence of radiolabelled B314 expressing Tp0136 to HEK293 cells of 18.8%. The molecule further returned an average percent binding of radiolabelled B314 expressing Tp0136 to Vero cells in test [2] of 6%.

B2: Tp0136 of Treponema pallidum subsp. pallidum Nichols (Seattle-Nichols) strain, expressed on the surface of B. burgdorferi B314 (natural protein)
chain: B1 chain
In test [1], B2 registered a reduction by FnbA-2 peptide (10 ug/well, preincubated with the monolayer) of adherence of radiolabelled B314 expressing Tp0136 to C6 (rat) glioma cells of 27.7% and a reduction by FnbA-2 peptide (10 ug/well, preincubated with the monolayer) of adherence of radiolabelled B314 expressing Tp0136 to HEK293 cells of 26.3%. The average percent binding of radiolabelled B314 expressing Tp0136 to Vero cells in test [2] is 8%.
